Assay results published in patent US20260234232A1 (QUAERITE BIOPHARM RESEARCH BEIJING, published 2026).

Assays:
human VEGFA165 [1] = target: T1, human VEGFA165 (human, UniProt P15692-4 27-191); test: ELISA, coated human VEGFA165, anti-His detection
T1 construct: Bought protein from two suppliers, treated as one molecule; the supplier is named under assay; also called antigen VEGFA
Experimental: Antigen human VEGFA165 (label-free, purchased from Sino Biological, Cat. No.: HPLC-10008-HNAH, hereinafter referred to as VEGFA) was diluted with ELISA coating buffer to a final concentration of 0.3 μg/mL and added to a microplate at 100 μL/well for coating at 4° C. overnight. […] The solution used for antibody dilution was PBS containing 0.1% Tween-20 (pH 7.4), i.e., PBST. After being incubated at 37° C. for 1 h, the microplate was washed 3 times with PBST, and a dilution of His-Tag murine monoclonal antibody (purchased from Proteintech, Cat. No.: 66005-1-Ig) was added. The plate was further incubated at 37° C. for 1 h and washed again. Subsequently, a dilution of HRP-labeled goat anti-mouse IgG antibody (HRP-conjugated Affinipure Goat Anti-Mouse IgG (H+L), purchased from Proteintech, Cat. No.: SA00001-1) was added, and the plate was incubated at room temperature for 45 min. After the plate was washed, 100 μL of TMB (purchased from Tiangen Biotech, Cat. No.: PA107-01) was added to each well for color development at 37° C. for 15 min, followed by the addition of 50 μL of stopping solution. The absorbance at 450 nm (OD450) was measured using a microplate reader.

human VEGFA165 [2] = target: T1, human VEGFA165; test: competitive ELISA, coated VEGFA, competitor VEGFR2-ECD-Fc 1 nM

T1 sequence (P15692 other isoform, or with tags, fused parts or gaps limits assumed): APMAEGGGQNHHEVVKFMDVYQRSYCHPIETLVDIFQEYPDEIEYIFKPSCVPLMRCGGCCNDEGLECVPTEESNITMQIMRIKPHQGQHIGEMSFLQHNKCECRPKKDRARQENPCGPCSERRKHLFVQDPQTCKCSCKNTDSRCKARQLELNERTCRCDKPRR

Binder | EC50 (human VEGFA165 [1]) [nM] | IC50 (human VEGFA165 [2]) [nM] | Maximum inhibition rate (%) (human VEGFA165 [2])
2V1-39GS (VHH, Tandem bivalent nanobody) QLQLVESGGGSVQPGGSLRLSCEVSGRTFSSYTMGWFRQAPGKEREFVVAISKGGYKYDSVSLEARFTISKDNTKNTVYLQMNSLKPEDTAVYYCAATRAYGSSRLRLADTYEYWGQGTQVTVSSGGGGSGGGSGGGGSGGGGSGGGGSGGGGSGGGGSGGGGSQLQLVESGGGSVQPGGSLRLSCEVSGRTFSSYTMGWFRQAPGKEREFVVAISKGGYKYDSVSLEARFTISKDNTKNTVYLQMNSLKPEDTAVYYCAATRAYGSSRLRLADTYEYWGQGTQVTVSS | 0.18 |  | 
2V1-(AP)5 (VHH, Tandem bivalent nanobody) QLQLVESGGGSVQPGGSLRLSCEVSGRTFSSYTMGWFRQAPGKEREFVVAISKGGYKYDSVSLEARFTISKDNTKNTVYLQMNSLKPEDTAVYYCAATRAYGSSRLRLADTYEYWGQGTQVTVSSPDSAPAPAPAPAPDGSSQLQLVESGGGSVQPGGSLRLSCEVSGRTFSSYTMGWFRQAPGKEREFVVAISKGGYKYDSVSLEARFTISKDNTKNTVYLQMNSLKPEDTAVYYCAATRAYGSSRLRLADTYEYWGQGTQVTVSS | 0.19 |  | 
2V1-6A (VHH, Tandem bivalent nanobody) QLQLVESGGGSVQPGGSLRLSCEVSGRTFSSYTMGWFRQAPGKEREFVVAISKGGYKYDSVSLEARFTISKDNTKNTVYLQMNSLKPEDTAVYYCAATRAYGSSRLRLADTYEYWGQGTQVTVSSAAAAAAQLQLVESGGGSVQPGGSLRLSCEVSGRTFSSYTMGWFRQAPGKEREFVVAISKGGYKYDSVSLEARFTISKDNTKNTVYLQMNSLKPEDTAVYYCAATRAYGSSRLRLADTYEYWGQGTQVTVSS | 0.33 |  | 
2V1-EAAAK-Turn (VHH, Tandem bivalent nanobody) QLQLVESGGGSVQPGGSLRLSCEVSGRTFSSYTMGWFRQAPGKEREFVVAISKGGYKYDSVSLEARFTISKDNTKNTVYLQMNSLKPEDTAVYYCAATRAYGSSRLRLADTYEYWGQGTQVTVSSPDSEAAAKEAAAKEAAAKEAAAKEAAAKPDGSSQLQLVESGGGSVQPGGSLRLSCEVSGRTFSSYTMGWFRQAPGKEREFVVAISKGGYKYDSVSLEARFTISKDNTKNTVYLQMNSLKPEDTAVYYCAATRAYGSSRLRLADTYEYWGQGTQVTVSS | 0.31 | 1.56 | 96.8
2V1-(AP)10 (VHH, Tandem bivalent nanobody) QLQLVESGGGSVQPGGSLRLSCEVSGRTFSSYTMGWFRQAPGKEREFVVAISKGGYKYDSVSLEARFTISKDNTKNTVYLQMNSLKPEDTAVYYCAATRAYGSSRLRLADTYEYWGQGTQVTVSSPDSAPAPAPAPAPAPAPAPAPAPDGSSQLQLVESGGGSVQPGGSLRLSCEVSGRTFSSYTMGWFRQAPGKEREFVVAISKGGYKYDSVSLEARFTISKDNTKNTVYLQMNSLKPEDTAVYYCAATRAYGSSRLRLADTYEYWGQGTQVTVSS | 0.18 |  | 
2V1-3A (VHH, Tandem bivalent nanobody) QLQLVESGGGSVQPGGSLRLSCEVSGRTFSSYTMGWFRQAPGKEREFVVAISKGGYKYDSVSLEARFTISKDNTKNTVYLQMNSLKPEDTAVYYCAATRAYGSSRLRLADTYEYWGQGTQVTVSSAAAQLQLVESGGGSVQPGGSLRLSCEVSGRTFSSYTMGWFRQAPGKEREFVVAISKGGYKYDSVSLEARFTISKDNTKNTVYLQMNSLKPEDTAVYYCAATRAYGSSRLRLADTYEYWGQGTQVTVSS | 0.25 |  | 
2V1-3GS (VHH, Tandem bivalent nanobody) QLQLVESGGGSVQPGGSLRLSCEVSGRTFSSYTMGWFRQAPGKEREFVVAISKGGYKYDSVSLEARFTISKDNTKNTVYLQMNSLKPEDTAVYYCAATRAYGSSRLRLADTYEYWGQGTQVTVSSGGSQLQLVESGGGSVQPGGSLRLSCEVSGRTFSSYTMGWFRQAPGKEREFVVAISKGGYKYDSVSLEARFTISKDNTKNTVYLQMNSLKPEDTAVYYCAATRAYGSSRLRLADTYEYWGQGTQVTVSS |  | 3 | 91
2V1-30GS (VHH, Tandem bivalent nanobody) QLQLVESGGGSVQPGGSLRLSCEVSGRTFSSYTMGWFRQAPGKEREFVVAISKGGYKYDSVSLEARFTISKDNTKNTVYLQMNSLKPEDTAVYYCAATRAYGSSRLRLADTYEYWGQGTQVTVSSGGGGSGGGSGGGGSGGGSGGGSGGGSGGGSQLQLVESGGGSVQPGGSLRLSCEVSGRTFSSYTMGWFRQAPGKEREFVVAISKGGYKYDSVSLEARFTISKDNTKNTVYLQMNSLKPEDTAVYYCAATRAYGSSRLRLADTYEYWGQGTQVTVSS | 0.22 |  | 
2V1-EAAAK-Rigid (VHH, Tandem bivalent nanobody) QLQLVESGGGSVQPGGSLRLSCEVSGRTFSSYTMGWFRQAPGKEREFVVAISKGGYKYDSVSLEARFTISKDNTKNTVYLQMNSLKPEDTAVYYCAATRAYGSSRLRLADTYEYWGQGTQVTVSSLAEAAAKEAAAKEAAAKEAAAKEAAAKAAAQLQLVESGGGSVQPGGSLRLSCEVSGRTFSSYTMGWFRQAPGKEREFVVAISKGGYKYDSVSLEARFTISKDNTKNTVYLQMNSLKPEDTAVYYCAATRAYGSSRLRLADTYEYWGQGTQVTVSS | 0.22 |  | 

Continued, values first:

EC50 (human VEGFA165 [1]) [nM] | IC50 (human VEGFA165 [2]) [nM] | Maximum inhibition rate (%) (human VEGFA165 [2]) | Binder
0.29 |  |  | 2V1-NL (VHH, Tandem bivalent nanobody; also called bivalent V1 without a linker) QLQLVESGGGSVQPGGSLRLSCEVSGRTFSSYTMGWFRQAPGKEREFVVAISKGGYKYDSVSLEARFTISKDNTKNTVYLQMNSLKPEDTAVYYCAATRAYGSSRLRLADTYEYWGQGTQVTVSSQLQLVESGGGSVQPGGSLRLSCEVSGRTFSSYTMGWFRQAPGKEREFVVAISKGGYKYDSVSLEARFTISKDNTKNTVYLQMNSLKPEDTAVYYCAATRAYGSSRLRLADTYEYWGQGTQVTVSS
0.33 | 1.76 | 96.7 | 2V15-EAAAK-Turn (VHH, Tandem bivalent nanobody) QLQLVESGGGSVQPGGSLRLSCEVSGRTFASYTMGWFRQAPGKEREFVVAISKGGYKYDSVSLEARFTISKDNTKNTVYLQMNSLKPEDTAVYYCAGTRAYGSSRLRLAETYEYWGQGTQVTVSSPDSEAAAKEAAAKEAAAKEAAAKEAAAKPDGSSQLQLVESGGGSVQPGGSLRLSCEVSGRTFASYTMGWFRQAPGKEREFVVAISKGGYKYDSVSLEARFTISKDNTKNTVYLQMNSLKPEDTAVYYCAGTRAYGSSRLRLAETYEYWGQGTQVTVSS
0.21 | 3.53 | 88.8 | 2V15-9S (VHH, Tandem bivalent nanobody) QLQLVESGGGSVQPGGSLRLSCEVSGRTFASYTMGWFRQAPGKEREFVVAISKGGYKYDSVSLEARFTISKDNTKNTVYLQMNSLKPEDTAVYYCAGTRAYGSSRLRLAETYEYWGQGTQVTVSSSSSSSSSSSQLQLVESGGGSVQPGGSLRLSCEVSGRTFASYTMGWFRQAPGKEREFVVAISKGGYKYDSVSLEARFTISKDNTKNTVYLQMNSLKPEDTAVYYCAGTRAYGSSRLRLAETYEYWGQGTQVTVSS
0.28 | 2.03 | 94.2 | 2V15-20GS (VHH, Tandem bivalent nanobody) QLQLVESGGGSVQPGGSLRLSCEVSGRTFASYTMGWFRQAPGKEREFVVAISKGGYKYDSVSLEARFTISKDNTKNTVYLQMNSLKPEDTAVYYCAGTRAYGSSRLRLAETYEYWGQGTQVTVSSGGGGSGGGSGGGSGGGSGGSQLQLVESGGGSVQPGGSLRLSCEVSGRTFASYTMGWFRQAPGKEREFVVAISKGGYKYDSVSLEARFTISKDNTKNTVYLQMNSLKPEDTAVYYCAGTRAYGSSRLRLAETYEYWGQGTQVTVSS
0.43 | 4.38 | 89.8 | 2V15-20S (VHH, Tandem bivalent nanobody) QLQLVESGGGSVQPGGSLRLSCEVSGRTFASYTMGWFRQAPGKEREFVVAISKGGYKYDSVSLEARFTISKDNTKNTVYLQMNSLKPEDTAVYYCAGTRAYGSSRLRLAETYEYWGQGTQVTVSSSSSSSSSSSSSSSSSSSSSSQLQLVESGGGSVQPGGSLRLSCEVSGRTFASYTMGWFRQAPGKEREFVVAISKGGYKYDSVSLEARFTISKDNTKNTVYLQMNSLKPEDTAVYYCAGTRAYGSSRLRLAETYEYWGQGTQVTVSS
0.27 | 1.6 | 94.1 | 2V15-30GS (VHH, Tandem bivalent nanobody) QLQLVESGGGSVQPGGSLRLSCEVSGRTFASYTMGWFRQAPGKEREFVVAISKGGYKYDSVSLEARFTISKDNTKNTVYLQMNSLKPEDTAVYYCAGTRAYGSSRLRLAETYEYWGQGTQVTVSSGGGGSGGGSGGGGSGGGSGGGSGGGSGGGSQLQLVESGGGSVQPGGSLRLSCEVSGRTFASYTMGWFRQAPGKEREFVVAISKGGYKYDSVSLEARFTISKDNTKNTVYLQMNSLKPEDTAVYYCAGTRAYGSSRLRLAETYEYWGQGTQVTVSS
0.24 | 1.66 | 94.5 | 2V15-25GS (VHH, Tandem bivalent nanobody) QLQLVESGGGSVQPGGSLRLSCEVSGRTFASYTMGWFRQAPGKEREFVVAISKGGYKYDSVSLEARFTISKDNTKNTVYLQMNSLKPEDTAVYYCAGTRAYGSSRLRLAETYEYWGQGTQVTVSSGGGGSGGGSGGGSGGGSGGGSGGGSQLQLVESGGGSVQPGGSLRLSCEVSGRTFASYTMGWFRQAPGKEREFVVAISKGGYKYDSVSLEARFTISKDNTKNTVYLQMNSLKPEDTAVYYCAGTRAYGSSRLRLAETYEYWGQGTQVTVSS
